How the values were obtained:
[1] = tested on: T1, MEGA_A1; assay: trans-cinnamic acid formation at […] nm, Michaelis-Menten fit; format: biochemical, synthetic construct; conditions: 50 mM Tris-HCl, pH 9.2, 37 °C; read-out: L-Phe^a / KM^c
T1 construct: N-terminal 6xHis tag, E. coli BL21(DE3); tetramer

[2] = tested on: T2, PAML_A2; assay: as above; format: biochemical, synthetic construct; conditions: 50 mM Tris-HCl, pH 9.2, 37 °C; read-out: L-Phe^a / KM^c
T2 construct: N-terminal 6xHis tag, E. coli BL21(DE3); tetramer

[3] = tested on: T3, MEGA_A3; assay: as above; format: biochemical, synthetic construct; conditions: 50 mM Tris-HCl, pH 9.2, 37 °C; read-out: L-Phe^a / KM^c
T3 construct: N-terminal 6xHis tag, E. coli BL21(DE3); tetramer

[4] = tested on: T4, PAML_A1; assay: as above; format: biochemical, synthetic construct; conditions: 50 mM Tris-HCl, pH 9.2, 37 °C; read-out: L-Phe^a / KM^c
T4 construct: N-terminal 6xHis tag, E. coli BL21(DE3); tetramer

[5] = biological target: PAL/TAL from Trichosporon cutaneum (TcPAL) (Trichosporon cutaneum); assay: SEC-MALS; analytical SEC on Superdex200 Increase 10/300 GL in filtered PBS pH 7.4, 50 ul of ca. 1-2 mg/ml enzyme, 0.75 ml/min, miniDAWN MALS detector; self-association (tetramer and larger oligomers)
[6] = biological target: PAL/TAL from Rhodotorula glutinis (RgPAL) (Rhodotorula glutinis); assay: as above
[7] = tested on: T3, MEGA_A3; assay: p-coumaric acid formation at […] nm, Michaelis-Menten fit; format: biochemical, synthetic construct; conditions: 50 mM Tris-HCl, pH 9.2, 37 °C; read-out: L-Tyr^a / KM^c
[8] = tested on: T1, MEGA_A1; assay: as above; format: biochemical, synthetic construct; conditions: 50 mM Tris-HCl, pH 9.2, 37 °C; read-out: L-Tyr^a / KM^c
[9] = tested on: T4, PAML_A1; assay: as above; format: biochemical, synthetic construct; conditions: 50 mM Tris-HCl, pH 9.2, 37 °C; read-out: L-Tyr^a / KM^c
[10] = substrate: N[C@@H](Cc1ccccc1)C(=O)O; assay: purified protein; format: biochemical, Rhodotorula glutinis; conditions: 50 mM Tris-HCl, pH 9.2, 37 °C
[11] = substrate: N[C@@H](Cc1ccc(O)cc1)C(=O)O; assay: purified protein; format: biochemical, Rhodotorula glutinis; conditions: 50 mM Tris-HCl, pH 9.2, 37 °C

N[C@@H](Cc1ccccc1)C(=O)O [L-phenylalanine]
Km [1]: 3830 ± 970 µM
Km [2]: 690 ± 150 µM
Km [3]: 350 ± 30 µM
Km [4]: 4480 ± 620 µM

PAL/TAL from Trichosporon cutaneum (TcPAL) (enzyme)
stoichiometry N [5]: 4

PAL/TAL from Rhodotorula glutinis (RgPAL) (enzyme)
stoichiometry N [6]: 4

N[C@@H](Cc1ccc(O)cc1)C(=O)O [L-tyrosine]
Km [7]: 50 ± 10 µM
Km [8]: 400 ± 20 µM
Km [9]: 2690 ± 10 µM

B1: RgPAL (Rhodotorula glutinis) (protein)
chain: MAPSVDSIATSVANSLSNGLHAAAAANGGDVHKKTAGAGSLLPTTETTQLDIVERILADAGATDQIKLDGYTLTLGDVVGAARRGRSVKVADSPHIREKIDASVEFLRTQLDNSVYGVTTGFGGSADTRTEDAISLQKALLEHQLCGVLPTSMDGFALGRGLENSLPLEVVRGAMTIRVNSLTRGHSAVRIVVLEALTNFLNHGITPIVPLRGTISASGDLSPLSYIAASITGHPDSKVHVDGKIMSAQEAIALKGLQPVVLGPKEGLGLVNGTAVSASMATLALTDAHVLSLLAQALTALTVEAMVGHAGSFHPFLHDVTRPHPTQIEVARNIRTLLEGSKYAVHHETEVKVKDDEGILRQDRYPLRCSPQWLGPLVSDMIHAHAVLSLEAGQSTTDNPLIDLENKMTHHGGAFMASSVGNTMEKTRLAVALMGKVSFTQLTEMLNAGMNRALPSCLAAEDPSLSYHCKGLDIAAAAYTSELGHLANPVSTHVQPAEMGNQAINSLALISARRTAEANDVLSLLLATHLYCVLQAVDLRAMEFEHTKAFEPMVTELLKQHFGALATAEVEDKVRKSIYKRLQQNNSYDLEQRWHDTFSVATGAVVEALAGQEVSLASLNAWKVACAEKAIALTRSVRDSFWAAPSSSSPALKYLSPRTRVLYSFVREEVGVKARRGDVYLGKQEVTIGTNVSRIYEAIKSGRIAPVLVKMMA
notes: full-length codon-optimized gene, N-terminal 6xHis tag, pET22b(+), E. coli BL21(DE3); homotetramer; MIO cofactor from Ala-Ser-Gly
Km [10]: 1350 ± 100 µM
kcat [10]: 8.95 ± 0.37 s⁻¹
kcat/Km [10]: 6660 ± 259 M⁻¹ s⁻¹
Km [11]: 280 ± 10 µM
kcat [11]: 1.71 ± 0.11 s⁻¹
kcat/Km [11]: 6300 ± 288 M⁻¹ s⁻¹
